System: Escherichia coli TOP10
Experiment: shrunken log2 fold change of peptide-encoding DNA abundance (4.5 h post-induction vs induction); higher = less antimicrobial activity (less host growth inhibition)
Details: time post-induction: 4.5 h; library: site-saturation at positions 5, 18, 19, 20
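Also: peptides expressed intracellularly from a pBAD plasmid library in pooled LB shake-flask culture, induced with 0.3% L-arabinose, DNA abundance read by NGS, three biological replicates, DESeq2 with apeglm shrinkage.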

RRIRCRPPRLPRPRPRPADYPRP and RRIRIRPPRLPRPRPRPPYKPRP are within 0.2 log units of each other in “shrunken log2 fold change” value: -0.263 for the first, -0.386 for the second.

Compared with RRIRMRPPRLPRPRPRPAHDPRP, RRIRKRPPRLPRPRPRPQRWPRP is lower in “shrunken log2 fold change” value: 0.673 for the first, 0.0222 for the second.

RRIRMRPPRLPRPRPRPCNSPRP and RRIRMRPPRLPRPRPRPGKSPRP are within 0.2 log units of each other in “shrunken log2 fold change” value: -0.138 for the first, 0.0127 for the second.

RRIRRRPPRLPRPRPRPIATPRP and RRIRQRPPRLPRPRPRPELWPRP are within 0.2 log units of each other in “shrunken log2 fold change” value: 0.0769 for the first, 0.27 for the second.

RRIRNRPPRLPRPRPRPDSRPRP and RRIRCRPPRLPRPRPRPEKTPRP are within 0.2 log units of each other in “shrunken log2 fold change” value: -0.0141 for the first, -0.0706 for the second.

RRIRKRPPRLPRPRPRPGMSPRP and RRIRARPPRLPRPRPRPIPRPRP are within 0.2 log units of each other in “shrunken log2 fold change” value: 0.361 for the first, 0.526 for the second.

Compared with RRIRYRPPRLPRPRPRPHWNPRP, RRIRPRPPRLPRPRPRPEVEPRP is higher in “shrunken log2 fold change” value: -0.799 for the first, -0.00972 for the second.

RRIRQRPPRLPRPRPRPALMPRP and RRIRWRPPRLPRPRPRPKFCPRP are within 0.2 log units of each other in “shrunken log2 fold change” value: 0.0376 for the first, -0.116 for the second.

First: RRIRMRPPRLPRPRPRPSVLPRP
Second: RRIRARPPRLPRPRPRPRKLPRP
The “shrunken log2 fold change” value of the first is lower: 0.0464 for the first, 0.424 for the second.

RRIRRRPPRLPRPRPRPYPQPRP and RRIRERPPRLPRPRPRPHVVPRP are within 0.2 log units of each other in “shrunken log2 fold change” value: -0.0454 for the first, -0.162 for the second.

First: RRIRKRPPRLPRPRPRPTHSPRP
Second: RRIRNRPPRLPRPRPRPYTAPRP
The “shrunken log2 fold change” value of the first is higher: 0.168 for the first, -0.502 for the second.

RRIRIRPPRLPRPRPRPFQCPRP and RRIRARPPRLPRPRPRPIVKPRP are within 0.2 log units of each other in “shrunken log2 fold change” value: 0.00367 for the first, 0.0456 for the second.

Going from RRIRCRPPRLPRPRPRPIDSPRP to RRIRLRPPRLPRPRPRPRDLPRP, the “shrunken log2 fold change” value rises from -0.197 to 0.0268.

Going from RRIRRRPPRLPRPRPRPSLWPRP to RRIRNRPPRLPRPRPRPSHSPRP, the “shrunken log2 fold change” value falls from 0.293 to -0.182.

Going from RRIRCRPPRLPRPRPRPGSSPRP to RRIRPRPPRLPRPRPRPAFDPRP, the “shrunken log2 fold change” value rises from 0.0141 to 0.388.

Compared with RRIRQRPPRLPRPRPRPCRFPRP, RRIRKRPPRLPRPRPRPTEGPRP is higher in “shrunken log2 fold change” value: 0.00388 for the first, 0.869 for the second.

RRIRTRPPRLPRPRPRPHNAPRP and RRIRGRPPRLPRPRPRPCNGPRP are within 0.2 log units of each other in “shrunken log2 fold change” value: -0.391 for the first, -0.199 for the second.

First: RRIRLRPPRLPRPRPRPNNKPRP
Second: RRIRCRPPRLPRPRPRPQQGPRP
The “shrunken log2 fold change” value of the first is lower: -0.357 for the first, 0.188 for the second.

RRIRDRPPRLPRPRPRPWNYPRP and RRIRSRPPRLPRPRPRPWICPRP are within 0.2 log units of each other in “shrunken log2 fold change” value: -0.0121 for the first, -0.15 for the second.

Going from RRIRHRPPRLPRPRPRPMYAPRP to RRIRHRPPRLPRPRPRPDYHPRP, the “shrunken log2 fold change” value falls from -0.0133 to -0.336.

RRIRKRPPRLPRPRPRPEIYPRP and RRIRCRPPRLPRPRPRPWPGPRP are within 0.2 log units of each other in “shrunken log2 fold change” value: -0.00723 for the first, 0.123 for the second.

Compared with RRIRERPPRLPRPRPRPRLIPRP, RRIRARPPRLPRPRPRPITGPRP is higher in “shrunken log2 fold change” value: -0.635 for the first, -0.00407 for the second.

Going from RRIRYRPPRLPRPRPRPRAPPRP to RRIRVRPPRLPRPRPRPLALPRP, the “shrunken log2 fold change” value falls from 0.271 to -0.181.

Going from RRIRWRPPRLPRPRPRPARFPRP to RRIRFRPPRLPRPRPRPDRAPRP, the “shrunken log2 fold change” value falls from 0.461 to 0.131.

RRIRLRPPRLPRPRPRPAFCPRP and RRIRDRPPRLPRPRPRPLKTPRP are within 0.2 log units of each other in “shrunken log2 fold change” value: 0.289 for the first, 0.333 for the second.

RRIRSRPPRLPRPRPRPGDKPRP and RRIRDRPPRLPRPRPRPKIQPRP are within 0.2 log units of each other in “shrunken log2 fold change” value: 0.0832 for the first, 0.0161 for the second.

First: RRIRMRPPRLPRPRPRPYPLPRP
Second: RRIRWRPPRLPRPRPRPELEPRP
The “shrunken log2 fold change” value of the first is lower: -0.141 for the first, 1.35 for the second.

RRIRIRPPRLPRPRPRPIASPRP and RRIRHRPPRLPRPRPRPFCKPRP are within 0.2 log units of each other in “shrunken log2 fold change” value: -0.567 for the first, -0.571 for the second.

RRIRKRPPRLPRPRPRPAVDPRP and RRIRARPPRLPRPRPRPMFSPRP are within 0.2 log units of each other in “shrunken log2 fold change” value: -0.0502 for the first, -0.142 for the second.

First: RRIRDRPPRLPRPRPRPSKAPRP
Second: RRIRVRPPRLPRPRPRPTRSPRP
The “shrunken log2 fold change” value of the first is lower: -0.393 for the first, 0.17 for the second.

Going from RRIRHRPPRLPRPRPRPCVIPRP to RRIRCRPPRLPRPRPRPGVPPRP, the “shrunken log2 fold change” value falls from -0.0839 to -0.3.

Compared with RRIRNRPPRLPRPRPRPPETPRP, RRIRERPPRLPRPRPRPLAPPRP is lower in “shrunken log2 fold change” value: 0.314 for the first, 0.101 for the second.

RRIRWRPPRLPRPRPRPIETPRP and RRIRPRPPRLPRPRPRPLGHPRP are within 0.2 log units of each other in “shrunken log2 fold change” value: 0.0333 for the first, 0.163 for the second.

Compared with RRIRHRPPRLPRPRPRPKNPPRP, RRIRCRPPRLPRPRPRPQYYPRP is lower in “shrunken log2 fold change” value: -0.155 for the first, -0.977 for the second.

First: RRIRDRPPRLPRPRPRPNASPRP
Second: RRIRKRPPRLPRPRPRPQCYPRP
The “shrunken log2 fold change” value of the first is higher: 0.527 for the first, -0.114 for the second.

RRIRTRPPRLPRPRPRPHTEPRP and RRIRVRPPRLPRPRPRPVNCPRP are within 0.2 log units of each other in “shrunken log2 fold change” value: -0.215 for the first, -0.17 for the second.

Compared with RRIRTRPPRLPRPRPRPGPKPRP, RRIRHRPPRLPRPRPRPSCLPRP is lower in “shrunken log2 fold change” value: 0.152 for the first, -0.4 for the second.

With RRIRARPPRLPRPRPRPLARPRP the “shrunken log2 fold change” value was 0.81.

From the supplement of paper PMC9112550, “Optimization of the antimicrobial peptide Bac7 by deep mutational scanning” (BMC Biology, 2022)
